Test results as given in IntAct's records for PubMed 20346719.

B1: Flagellar motor switch protein FliM (Escherichia coli (strain K12)), P06974 (parent)
chain: MGDSILSQAEIDALLNGDSEVKDEPTASVSGESDIRPYDPNTQRRVVRERLQALEIINERFARHFRMGLFNLLRRSPDITVGAIRIQPYHEFARNLPVPTNLNLIHLKPLRGTGLVVFSPSLVFIAVDNLFGGDGRFPTKVEGREFTHTEQRVINRMLKLALEGYSDAWKAINPLEVEYVRSEMQVKFTNITTSPNDIVVNTPFHVEIGNLTGEFNICLPFSMIEPLRELLVNPPLENSRNEDQNWRDNLVRQVQHSQLELVANFADISLRLSQILKLNPGDVLPIEKPDRIIAHVDGVPVLTSQYGTLNGQYALRIEHLINPILNSLNEEQPK
partner: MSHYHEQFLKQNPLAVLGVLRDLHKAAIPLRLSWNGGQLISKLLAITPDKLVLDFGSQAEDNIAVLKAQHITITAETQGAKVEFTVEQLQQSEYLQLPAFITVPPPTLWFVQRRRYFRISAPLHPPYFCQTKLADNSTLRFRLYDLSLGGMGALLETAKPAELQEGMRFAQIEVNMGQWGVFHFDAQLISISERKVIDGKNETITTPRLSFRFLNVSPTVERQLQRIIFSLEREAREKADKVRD
B2: Flagellar motor switch protein FliG (Escherichia coli (strain K12)), P0ABZ1 (parent)
chain: MSNLTGTDKSVILLMTIGEDRAAEVFKHLSQREVQTLSAAMANVTQISNKQLTDVLAEFEQEAEQFAALNINANDYLRSVLVKALGEERAASLLEDILETRDTASGIETLNFMEPQSAADLIRDEHPQIIATILVHLKRAQAADILALFDERLRHDVMLRIATFGGVQPAALAELTEVLNGLLDGQNLKRSKMGGVRTAAEIINLMKTQQEEAVITAVREFDGELAQKIIDEMFLFENLVDVDDRSIQRLLQEVDSESLLIALKGAEQPLREKFLRNMSQRAADILRDDLANRGPVRLSQVENEQKAILLIVRRLAETGEMVIGSGEDTYV
partner: B1 partner

Variants of: B1
Settings: with ycgr_ecoli ycgR

Variant | effect of a mutation on the interaction
MGDSILSQAEIDALLNGDSEVKDEPTASVSGESDIRPYDPNTQRRVVRERLQALEIINERFARHFRMGLFNLLRRSPDITVGAIRIQPYHEFARNLPVPTNLNLIHLKPLRGTGLVVFSPSLVFIAVDNLFGGDGRFPTKVEGREFTHTEQRVINRMLKEALEGYSDAWKAINPLEVEYVRSEMQVKFTNITTSPNDIVVNTPFHVEIGNLTGEFNICLPFSMIEPLRELLVNPPLENSRNEDQNWRDNLVRQVQHSQLELVANFADISLRLSQILKLNPGDVLPIEKPDRIIAHVDGVPVLTSQYGTLNGQYALRIEHLINPILNSLNEEQPK [L160E] | disrupting interaction
MGDSILSQAEIDALLNGDSEVKDEPTASVSGESDIRPYDPNTQRRVVRERLQALEIINERFARHFRMGLFNLLRRSPDITVGAIRIQPYHEFARNLPVPTNLNLIHLKPLRGTGLVVFSPSLVFIAVDNLFGGDGRFPTKVEGREFTHTEQRVIERMLKLALEGYSDAWKAINPLEVEYVRSEMQVKFTNITTSPNDIVVNTPFHVEIGNLTGEFNICLPFSMIEPLRELLVNPPLENSRNEDQNWRDNLVRQVQHSQLELVANFADISLRLSQILKLNPGDVLPIEKPDRIIAHVDGVPVLTSQYGTLNGQYALRIEHLINPILNSLNEEQPK [N155E] | decreasing interaction
MGDSILSQAEIDALLNGDSEVKDEPTASVSGESDIRPYDPNTQRRVVRERLQALEIINERFARHFRMGLFNLLRRSPDITVGAIRIQPYHEFARNLPVPTNLNLIHLKPLRGTGLVVFSPSLVFIAVDNLFGGDGRFPTKVEGREFTHTEQRVINRMLKLALEGYSRAWKAINPLEVEYVRSEMQVKFTNITTSPNDIVVNTPFHVEIGNLTGEFNICLPFSMIEPLRELLVNPPLENSRNEDQNWRDNLVRQVQHSQLELVANFADISLRLSQILKLNPGDVLPIEKPDRIIAHVDGVPVLTSQYGTLNGQYALRIEHLINPILNSLNEEQPK [D167R] | decreasing interaction
MGDSILSQAEIDALLNGDSEVKDEPTASVSGESDIRPYDPNTQRRVVRERLQALEIINERFARHFRMGLFNLLRRSPDITVGAIRIQPYHEFARNLPVPTNLNLIHLKPLRGTGLVVFSPSLVFIAVDNLFGGDGRFPTKVEGREFTHTEQRDINRMLKLALEGYSDAWKAINPLEVEYVRSEMQVKFTNITTSPNDIVVNTPFHVEIGNLTGEFNICLPFSMIEPLRELLVNPPLENSRNEDQNWRDNLVRQVQHSQLELVANFADISLRLSQILKLNPGDVLPIEKPDRIIAHVDGVPVLTSQYGTLNGQYALRIEHLINPILNSLNEEQPK [V153D] | decreasing interaction
MGDSILSQAEIDALLNGDSEVKDEPTASVSGESDIRPYDPNTQRRVVRERLQALEIINERFARHFRMGLFNLLRRSPDITVGAIRIQPYHEFARNLPVPTNLNLIHLKPLRGTGLVVFSPSLVFIAVDNLFGGDGRFPTKVEGREFTHTEQRVINRMLKLALEGYSDAWKAINPLRVEYVRSEMQVKFTNITTSPNDIVVNTPFHVEIGNLTGEFNICLPFSMIEPLRELLVNPPLENSRNEDQNWRDNLVRQVQHSQLELVANFADISLRLSQILKLNPGDVLPIEKPDRIIAHVDGVPVLTSQYGTLNGQYALRIEHLINPILNSLNEEQPK [E176R] | decreasing interaction
MGDSILSQAEIDALLNGDSEVKDEPTASVSGESDIRPYDPNTQRRVVRERLQALEIINERFARHFRMGLFNLLRRSPDITVGAIRIQPYHEFARNLPVPTNLNLIHLKPLRGTGLVVFSPSLVFIAVDNLFGGDGRFPTKVEGREFTHTEQRVINEMLKLALEGYSDAWKAINPLEVEYVRSEMQVKFTNITTSPNDIVVNTPFHVEIGNLTGEFNICLPFSMIEPLRELLVNPPLENSRNEDQNWRDNLVRQVQHSQLELVANFADISLRLSQILKLNPGDVLPIEKPDRIIAHVDGVPVLTSQYGTLNGQYALRIEHLINPILNSLNEEQPK [R156E] | disrupting interaction

Variants of: B2
Settings: with ycgr_ecoli ycgR

Variant | effect of a mutation on the interaction
MSNLTGTDKSVILLMTIGEDRAAEVFKHLSQREVQTLSAAMANVTQISNKQLTDVLAEFEQEAEQFAALNINANDYLRSVLVKALGEERAASLLEDILETRDTASGIETLNFMEPQSAADLIRDEHPQIIATILVHLKRAQAADILALFDERLRHDVMLRIATFGGVQPAALAELTEVLNGLLDGQNLKRSKMGGVRTAAEIINLMKTQQEEAVITAVREFDGELAQKIIDEMFLFENLVDVDDRSIQRLLWEVDSESLLIALKGAEQPLREKFLRNMSQRAADILRDDLANRGPVRLSQVENEQKAILLIVRRLAETGEMVIGSGEDTYV [Q252W] | decreasing interaction
MSNLTGTDKSVILLMTIGEDRAAEVFKHLSQREVQTLSAAMANVTQISNKQLTDVLAEFEQEAEQFAALNINANDYLRSVLVKALGEERAASLLEDILETRDTASGIETLNFMEPQSAADLIRDEHPQIIATILVHLKRAQAADILALFDERLRHDVMLRIATFGGVQPAALAELTEVLNGLLDGQNLKRSKMGGVRTAAEIINLMKTQQEEAVITAVREFDGELAQKIIDEMFLFENLVDVDDRSIQRLLQEVDSESLLIALKGAEQPLREKFLRNMSQRAADILRDDLAWRGPVRLSQVENEQKAILLIVRRLAETGEMVIGSGEDTYV [N292W] | decreasing interaction
MSNLTGTDKSVILLMTIGEDRAAEVFKHLSQREVQTLSAAMANVTQISNKQLTDVLAEFEQEAEQFAALNINANDYLRSVLVKALGEERAASLLEDILETRDTASGIETLNFMEPQSAADLIRDEHPQIIATILVHLKRAQAADILALFDERLRHDVMLRIATFGGVQPAALAELTEVLNGLLDGQNLKRSKMGGVRTAAEIINLMKTQQEEAVITAVREFDGELAQKIIDEMFLFENLVDVDDRSIQRLLQEVDSESLLIALKGAEQPLREKFLRNMSQRAADILRDDLANRGWVRLSQVENEQKAILLIVRRLAETGEMVIGSGEDTYV [P295W] | decreasing interaction
